We go through one molecule from patent US6617497B1, “Cytokinin oxidase” (The Curators of the University of Missouri, priority 1997, dated 2003).

The target in the data set is T1, cytokinin oxidase activity (Zea mays, UniProt Q9T0N8).
T1 construct: The exon fusion (containing ckx1 and including its putative signal peptide) was ligated into the Pml1/BsmB1 restriction sites of pPICZ-A; made in house; host or cells: Pichia pastoris X33 (transformant PPckx1, plasmid pROM24); activity measured in the culture supernatant
Nature of the data set: Cytokinin oxidase activity of ckx1 expressed in Pichia pastoris. Format: biochemical. The source says: Two assays were used to screen purification steps for cytokinin oxidase activity. The first was the Schiff base formation assay measuring the production of dimethylallylaldehyde from iP, as described by Liberos-Minotta (1995), which was used up through the DEAE column step. A second assay, developed by the applicant, was used in the remaining purification steps. In this assay, the transfer of reducing equivalents from isopentenyladenine to dichlorophenolindophenol (DCPIP), catalyzed by ckx1, allows the observance of reactivity by measuring absorbance change at 590 nm. In a final volume of 250 μl, the assay contains: 100 mM Phosphate buffer, pH 7.0; 1.0 mM EDTA; 0.05 mM DCPIP; 0.1 mM iP; 100 μg/ml BSA; and the sample tested. After the addition of the enzyme, absorbance change is read at 590 nm for 10 minutes.
Removal of the right-most intron was accomplished by splicing by overlap extension (Horton et al., 1989) and for the left-most intron by ligation of suitable restriction fragments. The resulting intronless cassette was inserted into the Pichia expression vector pPICZ-A to give the expression construct pROM24 (FIG. 9). This construct was introduced into the requisite Pichia host and grown in the presence of methanol to induce ckx1 expression. Appropriate control Pichia lines (containing. the vector alone or a recombinant expressing human serum albumin) were grown in parallel. […]

T1 sequence (Q9T0N8 19-534): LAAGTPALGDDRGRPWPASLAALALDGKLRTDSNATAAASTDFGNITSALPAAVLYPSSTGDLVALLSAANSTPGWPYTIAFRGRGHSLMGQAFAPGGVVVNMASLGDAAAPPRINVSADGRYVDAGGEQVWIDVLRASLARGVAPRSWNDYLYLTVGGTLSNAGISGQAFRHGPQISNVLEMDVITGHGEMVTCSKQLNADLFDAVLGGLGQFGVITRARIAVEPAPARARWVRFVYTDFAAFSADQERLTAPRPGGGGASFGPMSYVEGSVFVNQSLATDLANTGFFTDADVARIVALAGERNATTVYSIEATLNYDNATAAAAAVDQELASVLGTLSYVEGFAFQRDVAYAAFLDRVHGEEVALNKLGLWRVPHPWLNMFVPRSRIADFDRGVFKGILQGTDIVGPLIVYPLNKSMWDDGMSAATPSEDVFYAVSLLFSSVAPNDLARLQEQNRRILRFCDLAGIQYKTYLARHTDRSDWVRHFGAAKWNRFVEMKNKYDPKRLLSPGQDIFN

B1: ckx1: purified plant cytokinin oxidizing enzyme from Zea mays (SEQ. ID NO. 1); here expressed recombinantly in Pichia pastoris (protein)
chain: MAVVYYLLLAGLIACSHALAAGTPALGDDRGRPWPASLAALALDGKLRTDSNATAAASTDFGNITSALPAAVLYPSSTGDLVALLSAANSTPGWPYTIAFRGRGHSLMGQAFAPGGVVVNMASLGDAAAPPGINVSADGRYVDAGGEQVWIDVLRASLARGVAPRSWNDYLYLTVGGTLSNAGISGQAFRHGPQISNVLEMDVITGHGEMVTCSKQLNADLFDAVLGGLGQFGVITRARIAVEPAPARARWVRFVYTDFAAFSADQERLTAPRPGGGGASFGPMSYVEGSVFVNQSLATDLANTGFFTDADVARIVALAGERNATTVYSIEATLNYDNATAAAAAVDQELASVLGTLSYVEGFAFQRDVAYAAFLDRVHGEEVALNKLGLWRVPHPWLNMFVPRSRIADFDRGVFKGILQGTDIVGPLIVYPLNKSMWDDGMSAATPSEDVFYAVSLLFSSVAPNDLARLQEQNRRILRFCDLAGIQYKTYLARHTDRSDWVRHFGAAKWNRFVEMKNKYDPKRLLSPGQDIFN
modifications: Zea mays
notes: here expressed recombinantly in Pichia pastoris
Turning to B1, the “cytokinin oxidase activity in cell lysates” value (Pichia cell lysates, at any time during the growth curve) is “No cytokinin oxidase activity”. For the same molecule, the “cytokinin oxidase activity in growth medium” value (Pichia culture supernatant, methanol induction) is on record as “high levels of cytokinin oxidase activity”.
